Measured values as given in article doi:10.1101/2025.09.09.675085 (bioRxiv, 2025).
Read-outs that look alike come from different tables or passages of the source.

What was measured:
crystal structure [1] = molecular target: the molecule itself; assay: crystal structure
crystal structure [2] = molecular target: the molecule itself; assay: crystal structure; remark: listed apart in the source

B1: Selenomethionine-labelled tagless TipA (residues 26-572) (natural protein, Bdellovibrio bacteriovorus HD100, UniProt Q6MK73 26-572, looked up)
chain: ITDANPQIANKHLMPNAVRVQITQRGMKYFDNRLSDILGNLGVKLDEGYFPAMSYTAEKPINMDDFMDANPEMVKMYQQVRGLLTQWLVGFSMNDHQPTIEIGESGYVAKFSRFGLVTDELLMEALGKRDGAILAIELEVKKLTISTQSVVAWDTQNEFLGKAGFEDVTLQAADEEMPLKIRLPFYLRMNAMGGLEFEALEISNNFDSIPLGLKYGRLIVPQFAVEVNGKKFYVNNAELEKLFQAQAPMILEKVRGSIGDFARTQLPAMLNQKAKEFLGGSLEQVQDMAAPGQEPTDTRPAFKWGLQLQNLNLKKSLNVDLTTYVEDPVNSRSAPVKSHASRGAPTFNAVAQENYDIGLSVDRALINRVLQLAFERRNFEQIKQSDGSVLKLVATPLIDYVKTPAGVAVKPTETFVKLRVSVEIQPGSMFLKKTIVVDFDIIAKLRQLSDKTGMQMLLHSIDTDSLYLDDKYISVAGKLFKGKVREGVKDELKKRSANWATTEESLPGGLPLPPQILGIKLDINRVMMDPNGHLIMYLDYAKTGANK
modifications: selenomethionine-labelled
- stoichiometry N (crystal structure [1]): 2

B2: TipA-His (TULIP invasion protein A, Bd2538, residues 26-572 with C-terminal octa-His tag) (natural protein, Bdellovibrio bacteriovorus HD100, UniProt Q6MK73 26-572, looked up)
chain: ITDANPQIANKHLMPNAVRVQITQRGMKYFDNRLSDILGNLGVKLDEGYFPAMSYTAEKPINMDDFMDANPEMVKMYQQVRGLLTQWLVGFSMNDHQPTIEIGESGYVAKFSRFGLVTDELLMEALGKRDGAILAIELEVKKLTISTQSVVAWDTQNEFLGKAGFEDVTLQAADEEMPLKIRLPFYLRMNAMGGLEFEALEISNNFDSIPLGLKYGRLIVPQFAVEVNGKKFYVNNAELEKLFQAQAPMILEKVRGSIGDFARTQLPAMLNQKAKEFLGGSLEQVQDMAAPGQEPTDTRPAFKWGLQLQNLNLKKSLNVDLTTYVEDPVNSRSAPVKSHASRGAPTFNAVAQENYDIGLSVDRALINRVLQLAFERRNFEQIKQSDGSVLKLVATPLIDYVKTPAGVAVKPTETFVKLRVSVEIQPGSMFLKKTIVVDFDIIAKLRQLSDKTGMQMLLHSIDTDSLYLDDKYISVAGKLFKGKVREGVKDELKKRSANWATTEESLPGGLPLPPQILGIKLDINRVMMDPNGHLIMYLDYAKTGANK
- stoichiometry N (crystal structure [2]): 2
